Data: patent US20110038881A1, “PROGNOSTIC ASSAY FOR DETERMINING T CELL RESPONSE TO HLA ANTIGENS AND USE THEREOF IN FIELD OF TISSUE TRANSPLANTATION” (priority 2007, published 2011)

B1: p46* (peptide)
chain: FQKWAAVVVPSGQEQR
B2: p36 (peptide)
chain: RRYLENGKETLQRTD
B3: p41 (peptide)
chain: LSFYPAEITLTWQRD
B4: p45* (peptide)
chain: GTFQKWAAVVVPSGQ
B5: p33 (peptide)
chain: RAYLEGTCVEWLRRY
B6: p37 (peptide)
chain: ETLQRTDAPKTHMTH
B7: p44 (peptide)
chain: TELVETRPAGDGTFQ
B8: p31 (peptide)
chain: AHVAEQLRAYLEGTC
B9: p35* (peptide)
chain: VEWLRRYLENGKETL
B10: p38 (peptide)
chain: THMTHHAVSDHEATL
B11: p53* (peptide)
chain: IPIVGIIAGLVLFGA
B12: p29 (peptide)
chain: ADMAAQTTKHKWEAA
B13: p48 (peptide)
chain: EQRYTCHVQHEGLPKP
B14: p30 (peptide)
chain: HKWEAAHVAEQLRAY
B15: p32 (peptide)
chain: EQLRAYLEGTCVEWL
B16: p47 (peptide)
chain: AAVVVPSGQEQRYTC
B17: p27 (peptide)
chain: EDLRSWTAADMAAQT
B18: p34* (peptide)
chain: TCVEWLRRYLENGKE

These binders were tested against HLA-DRB1*0101 (human) (assay: competition binding). Conditions: modification not given.

IC50 [µM]	Binder
0.218	B1
0.704	B2
0.05	B3
0.004	B4
0.025	B5
2	B6
4.47	B7
0.629	B8
0.598	B9
8	B10
0.026	B11
40	B12
1.92	B13
0.029	B14
0.063	B15
2.24	B16
> 100	B17
> 100	B18

These binders were tested against HLA-DRB1*0301 (human) (assay: competition binding). Conditions: modification not given.

IC50 [µM]	Binder
7.35	B1
> 100	B2
> 100	B3
> 100	B4
34.9	B5
> 100	B6
> 100	B7
> 100	B8
> 100	B9
> 100	B10
> 100	B12
> 100	B13
16.5	B14
1.84	B15
0.98	B16
> 100	B17
> 100	B18

The binders below were run against HLA-DRB1*0401 (human) (assay: competition binding). Conditions: modification not given.

IC50 [µM]	Binder
0.326	B1
28	B2
0.917	B3
0.099	B4
9.17	B5
60	B6
70.4	B7
> 100	B8
> 100	B9
> 100	B10
> 100	B11
> 100	B12
57.4	B13
0.118	B14
1.73	B15
> 100	B16
> 100	B17
> 100	B18

The binders below were run against HLA-DRB1*0701 (human) (assay: competition binding). Conditions: modification not given.

IC50 [µM]	Binder
0.7	B1
> 100	B2
> 100	B3
0.637	B5
3.13	B6
2.16	B7
> 100	B8
> 100	B9
53.7	B10
0.179	B11
> 100	B12
29.5	B13
0.401	B14
0.149	B15
42.2	B16
> 100	B17
> 100	B18

The binders below were run against HLA-DRB1*1101 (human) (assay: competition binding). Conditions: modification not given.

IC50 [µM]	Binder
0.626	B1
0.738	B2
2.35	B3
0.34	B4
0.872	B5
> 100	B6
8.75	B7
3.34	B8
0.251	B9
> 100	B10
> 100	B11
> 100	B12
0.693	B13
0.379	B14
0.424	B15
68.9	B16
> 100	B17
0.245	B18

The binders below were run against HLA-DRB1*1301 (human) (assay: competition binding). Conditions: modification not given.

IC50 [µM]	Binder
> 100	B1
11.6	B2
> 100	B3
> 100	B4
13.4	B5
> 100	B6
> 100	B7
8.06	B8
8.06	B9
> 100	B10
1.37	B11
3.84	B12
> 100	B13
> 100	B14
> 100	B15
7.48	B16
> 100	B17
5	B18

Each binder was assayed against HLA-DRB1*1501 (human) (assay: competition binding). Conditions: modification not given.

IC50 [µM]	Binder
> 100	B1
69	B2
> 100	B3
0.474	B4
4.74	B5
> 100	B6
> 100	B7
0.026	B8
0.245	B9
> 100	B10
0.283	B11
> 100	B12
> 100	B13
0.938	B14
0.267	B15
> 100	B16
0.648	B17
22.2	B18

The binders below were run against HLA-DRB3*0101 (human) (assay: competition binding). Conditions: modification not given.

IC50 [µM]	Binder
1.73	B1
4.85	B2
0.045	B4
8.94	B5
27.6	B6
0.033	B12
20.5	B13
0.806	B14
1.09	B15
1.53	B16
1.88	B17
58.1	B18

What follows are binders tested against HLA-DRB4*0101 (human) (assay: competition binding). Conditions: modification not given.

IC50 [µM]	Binder
12.6	B5
